In patent publication US20140235701, “NGF APTAMER AND APPLICATION THEREOF” (RIBOMIC INC., published 2014):

Key:
Settings in all cases: tags: R&D Systems; chain copies: 2
NT-3 (neurotrophin-3) = molecular target: T1, NT-3 (neurotrophin-3) (Homo sapiens, UniProt P20783 P20783:139-257); experiment: cell_activity; TF-1 TrkC/p75 cells
T1 sequence: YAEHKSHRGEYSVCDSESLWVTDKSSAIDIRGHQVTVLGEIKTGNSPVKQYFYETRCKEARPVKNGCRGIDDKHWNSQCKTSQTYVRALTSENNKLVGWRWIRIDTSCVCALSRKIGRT
Text: Using TF-1 cells, whether NGF aptamer inhibits BDNF, NT-3, NT-4 was examined. Human receptor genes (TrkB, TrkC, p75) for respective neurotrophic factors were introduced into TF-1 cells (ATCC Number: CRL-2003), which is a human erythroleukemic cell line, by using a retrovirus vector to give cells that highly express these receptors stably. TF-1 cells introduced with TrkB and p75 were used for the evaluation of inhibitory activity against BDNF, TF-1 cells introduced with TrkC and p75 were used for the evaluation against NT-3, and TF-1 cells introduced with TrkB alone were used for the evaluation against NT-4. These cells were suspended in an RPMI-1640 medium containing 20% fetal bovine serum, and seeded in a white 96 well flat-bottom plate at 1000 cells (50 μL) per well. Thereto was added a mixed solution 50 μL of human BDNF (final concentration 0.074 nM) or NT-3 (final concentration 0.074 nM) or NT-4 (final concentration 0.071 nM) and the aptamer (final concentration 1 μM-0.01 nM), which had been pre-reacted at room temperature for 30 min in a serum-free RPMI-1640 medium, 3 days later, 100 μL of CellTiter-Glo reagent for CellTiter-Glo Luminescent Cell Viability Assay (manufactured by Promega) was added to each well, chemiluminescence was measured by a microplate reader. With the amount of luminescence per well obtained by the addition of BDNF or NT-3 or NT-4 alone and culture of the cells for 3 days as inhibitory activity 0%, and that of the well obtained by culture for 3 days without addition of BDNF or NT-3 or NT-4 as inhibitory activity 100%, the inhibitory activity of the aptamer was calculated from the amount of luminescence per well obtained by culturing with the addition of BDNF or NT-3 or NT-4 and the aptamer in mixture. When the inhibitory activity was 0 or below, ‘0%’ is indicated. The 50% inhibitory concentration (IC₅₀) was determined from the concentrations at two, above and below points sandwiching the 50% inhibitory activity. An IC₅₀ value indicated as “>X” means that the inhibitory activity was not more than 50% when the indicated concentration X was the maximum measured concentration. N.D. means not measured.

[1] = molecular target: T2, NGF (nerve growth factor) (Homo sapiens, UniProt P01138 P01138:122-241); experiment: cell_activity; TF-1 cell proliferation inhibition
Method: Two NGF receptor (human TrkA and human p75) genes were introduced into TF-1 cells (ATCC Number: CRL-2003), which is a human erythroleukemic cell line, by using a retrovirus vector to give cells that highly express two receptors simultaneously and stably. The cells were suspended in an RPMI-1640 medium containing 20% fetal bovine serum, and seeded in a white 96 well flat-bottom plate at 1000 cells (50 μL) per well. […] With the amount of luminescence per well obtained by the addition of NGF alone and culture of the cells for 3 days as inhibitory activity 0%, and that of the well obtained by NGF free culture for 3 days as inhibitory activity 100%, the inhibitory activity of the aptamer was calculated from the amount of luminescence per well obtained by culturing with the addition of NGF and the aptamer in mixture.

NT-4 (neurotrophin-4) = molecular target: T3, NT-4 (neurotrophin-4) (Homo sapiens, UniProt P34130 P34130:81-210); experiment: cell_activity; TF-1 TrkB cells
T3 sequence: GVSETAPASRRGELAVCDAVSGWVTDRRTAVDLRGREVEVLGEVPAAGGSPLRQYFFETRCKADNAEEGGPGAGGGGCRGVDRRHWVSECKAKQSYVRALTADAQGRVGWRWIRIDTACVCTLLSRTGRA
Text: Using TF-1 cells, whether NGF aptamer inhibits BDNF, NT-3, NT-4 was examined. Human receptor genes (TrkB, TrkC, p75) for respective neurotrophic factors were introduced into TF-1 cells (ATCC Number: CRL-2003), which is a human erythroleukemic cell line, by using a retrovirus vector to give cells that highly express these receptors stably. TF-1 cells introduced with TrkB and p75 were used for the evaluation of inhibitory activity against BDNF, TF-1 cells introduced with TrkC and p75 were used for the evaluation against NT-3, and TF-1 cells introduced with TrkB alone were used for the evaluation against NT-4. These cells were suspended in an RPMI-1640 medium containing 20% fetal bovine serum, and seeded in a white 96 well flat-bottom plate at 1000 cells (50 μL) per well. Thereto was added a mixed solution 50 μL of human BDNF (final concentration 0.074 nM) or NT-3 (final concentration 0.074 nM) or NT-4 (final concentration 0.071 nM) and the aptamer (final concentration 1 μM-0.01 nM), which had been pre-reacted at room temperature for 30 min in a serum-free RPMI-1640 medium, 3 days later, 100 μL of CellTiter-Glo reagent for CellTiter-Glo Luminescent Cell Viability Assay (manufactured by Promega) was added to each well, chemiluminescence was measured by a microplate reader. With the amount of luminescence per well obtained by the addition of BDNF or NT-3 or NT-4 alone and culture of the cells for 3 days as inhibitory activity 0%, and that of the well obtained by culture for 3 days without addition of BDNF or NT-3 or NT-4 as inhibitory activity 100%, the inhibitory activity of the aptamer was calculated from the amount of luminescence per well obtained by culturing with the addition of BDNF or NT-3 or NT-4 and the aptamer in mixture. […] The 50% inhibitory concentration (IC₅₀) was determined from the concentrations at two, above and below points sandwiching the 50% inhibitory activity. An IC₅₀ value indicated as “>X” means that the inhibitory activity was not more than 50% when the indicated concentration X was the maximum measured concentration. N.D. means not measured.

[2] = molecular target: T2, NGF (nerve growth factor); experiment: cell_activity; neurite outgrowth inhibition
Method: The cells (2500 cells per well) were cultured for one day in an RPMI-1640 medium containing 2.5% horse serum and 1.25% fetal bovine serum in a 96 well flat-bottom plate coated with collagen type IV. […] Two days later, the cytoplasm and nuclei were stained using Cellomics Neurite Outgrowth Kit (manufactured by Thermo Scientific), and neurite length per cell was measured by Cellomics ArrayScan VTI (manufactured by Thermo Scientific). With the neurite length per cell obtained by the addition of NGF alone as inhibitory activity 0%, and that of the cell obtained by NGF free culture for 2 days as inhibitory activity 100%, the inhibitory activity of the aptamer was calculated from the neurite length per cell obtained by culturing with the addition of NGF and the aptamer in mixture.

[3] = molecular target: T2, NGF (nerve growth factor); experiment: SPR; binding maintained on shortening
[4] = molecular target: T2, NGF (nerve growth factor); experiment: SPR; strong inhibition of NGF-receptor binding
Method: As directed in BIAcore's protocol, Protein A (21181, PIERCE) was immobilized on a CM5 sensor chip. About 700 to 1200 RU of human TrkA fused with the Fc portion of IgG (175-TK, R&D systems) or human P75 (367-NR, R&D systems) was immobilized thereon. As the analyte, a mixture of NGF (0.1 μM) and each aptamer (0.3 μM) was injected after being allowed to stand for 30 minutes. […] When NGF binds stronger to a receptor than an aptamer, the aptamer may be removed and NGF may bind to the receptor. Before starting the inhibition experiment, binding of TrkA or p75 and NGF was confirmed.

[5] = molecular target: T2, NGF (nerve growth factor); experiment: SPR; more than 40N
Method: As the measuring apparatus, BIAcore2000 manufactured by BIAcore was used and, as the sensor chip, CM5 that reacts with an amino group was used. […] For the reaction of an amino group on the protein side and a carboxyl group on the chip side, ethyl-3-carbodiimide hydrochloride and N-hydroxysuccinimide were used. After the reaction, blocking by ethanolamine-HCl was performed. The immobilized amount of NGF was set to 3,000-4,000 RU. An aptamer for analyte was prepared to 0.15 μM-0.5 μM. As a running buffer, solution A was used. Here, solution A is a mixed solution of 145 mM sodium chloride, 5.4 mM potassium chloride, 1.8 mM calcium chloride, 0.8 mM magnesium chloride, 20 mM Tris (pH 7.6), 0.05% Tween 20. As a regeneration solution, a mixed solution of 1M NaCl and 50 mM NaOH was used. NGF was immobilized on FC2, and the results of FC1 were subtracted to give a final sensorgram.
The binding activity of these aptamers to NGF was evaluated by the surface plasmon resonance method in the same manner as in Example 1.

[6] = molecular target: T2, NGF (nerve growth factor); experiment: SPR; binding maintained
[7] = molecular target: T2, NGF (nerve growth factor); experiment: SPR; strong neurite inhibition at 10 nM

T2 sequence (P01138 122-241, one chain of several): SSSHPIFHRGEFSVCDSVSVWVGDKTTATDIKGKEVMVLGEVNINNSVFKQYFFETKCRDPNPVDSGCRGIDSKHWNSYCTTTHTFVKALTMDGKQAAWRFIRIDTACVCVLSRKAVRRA

B1: SEQ ID NO: 82(16) (ssRNA)
RNA: GGGUCCUGGAUAAGAGUUUCCGUCUCGUAUCCUGUUACCC
modifications: 2'-F C and U except C38; 2'-OMe G1-3,G9,G14,G16,G22,G27,C38; 2'-OH G8,G34; 2'-H A; idT 5' and 3'
- IC50 (NT-3 (neurotrophin-3)): 34.4 nM
- IC50 [1]: 0.026 nM
- IC50 (NT-4 (neurotrophin-4)): < 3 nM

B2: SEQ ID NO: 82(25) (ssRNA)
RNA: GGGUCCUGGAUAAGAGUUUCCGUCUCGUAUCCUGUUACCC
modifications: 2'-F C5,U7,U17,U18,U19,C20,C24,U25,U33,U36; 2'-OH G8,G34; 2'-H A; 2'-OMe all other; idT 5' and 3'
- IC50 (NT-3 (neurotrophin-3)): 2.15 nM
- IC50 [1]: 0.085 nM
- IC50 (NT-4 (neurotrophin-4)): 40.4 nM
- IC50 [2]: < 0.1 nM

B3: SEQ ID NO: 90 (ssRNA)
RNA: GGGUCCUGCGUAAGAGUUUCCGUCUCGUAUGCUGUUACCC
modifications: 2'-F C and U; 2'-OH G; 2'-H (deoxy) A
- binding result [3]: binds

B4: SEQ ID NO: 82(2) (ssRNA)
RNA: GGGUCCUGGAUAAGAGUUUCCGUCUCGUAUCCUGUUACCC
modifications: 2'-F C and U except U4; 2'-OMe G1-3,U4,G9,G14,G16,G22,G27; 2'-OH G8,G34; 2'-H A; idT 5' and 3'
- IC50 (NT-3 (neurotrophin-3)): 40.6 nM
- IC50 [1]: 0.041 nM
- IC50 (NT-4 (neurotrophin-4)): < 3 nM

B5: SEQ ID NO: 162 (ssRNA)
RNA: GGGUCCUGGAUAAGAGTUUCCGUCUCGUAUCCTGUUACCC
modifications: 2'-F C5,U7,U18,U19,C20,C24,U25,U36; dT17,dT33; 2'-OH G8,G34; 2'-H A; 2'-OMe all other; idT 5' and 3'
- IC50 [1]: 0.014 nM
- IC50 [2]: 0.033 nM

B6: SEQ ID NO: 82(55) (ssRNA)
RNA: GGGUCCUGGAUAAGAGUUUCCGUCUCGUAUCCUGUUACCC
modifications: 2'-F C5,U7,U17,U18,U19,C20,C24,U25,U33,U36; 2'-OH G8,G34; 2'-H A; 2'-OMe all other; 5' PEG80TS4; 3' idT
- IC50 (NT-3 (neurotrophin-3)): 0.97 nM
- IC50 [1]: 0.039 nM
- IC50 [2]: 0.101 nM

B7: SEQ ID NO: 4 (ssRNA)
RNA: GGGAGAACUUCGACCAGAAGUACGUUAGUACGUUUGCAUAUGUACAACCUUGCAUACGAUACGUAGAUUAUGUGCGCAUACAUGGAUCCUC
modifications: 2'-F C and U; 2'-OH G; 2'-H (deoxy) A
- binding result [4]: binds

B8: SEQ ID NO: 20 (ssRNA)
RNA: GUGCAAUACUUUCGCGGCAUAUGUGCAAACCUUGCCACGACUAUGUGCGC
modifications: 2'-F C and U; 2'-OH G; 2'-H (deoxy) A
- binding result [5]: binds

B9: SEQ ID NO: 63 (ssRNA)
RNA: GGGUCCUGCUGCGUAGUUUCCGUCUACGUGGCUGUUACCC
modifications: 2'-F C/U, dA, 2'-OH G
- binding result [6]: binds

B10: SEQ ID NO: 65 (ssRNA)
RNA: GGGUCCUGCUACGGAGUUUCCGUCUCGGUGGCUGUUACCC
modifications: 2'-F C/U, dA, 2'-OH G
- binding result [6]: binds

B11: SEQ ID NO: 95 (ssRNA)
RNA: GGGUCCUGCUGCGUAGUUUCCAUCUUCGUGGCUGUUACCC
modifications: 2'-F C/U, dA, 2'-OH G
- binding result [7]: binds

B12: SEQ ID NO: 75 (ssRNA)
RNA: GGGUCCUGCUGCGUAGUUUCCGUCUUCGCGGUUGUUACCC
modifications: 2'-F C/U, dA, 2'-OH G
- binding result [6]: binds
